Reference: the DeepSol protein solubility set

experiment: soluble on expression in E. coli; label from the status in PepcDB or PDB records

Sequence	soluble on expression in E. coli
SKTNPRLSSLIADLKSAARSSGGAVWGDVAERLEKPRRTHAEVNLGRIERYAQEDETVVVPGKVLGSGVLQKDVTVAAVDFSGTAETKIDQVGEAVSLEQAIENNPEGSHVRVIR	soluble
SLAAVQVVGSWPSVQPREAPREAIPERGNGFRLLSARLCALRPDDSSSARTEIHLLFDQLISENYSEGSGVAPEDVSALLVQACRLVPLNQNHLVSKVSQLIHHLLNRLQVIVDEQHLDFLLAYTISAIHQCSSWTHREILQALAALVYCNGSKCQKYLPELLGNTGLLMKLSDLAQSDPEVRRAAVHCMANLCLSVPGQPYLEEPYQNVCFQAFLTILQSPKSSDMDDITFCMLLQNALKGIQSLLNGGRMKLTQTDELGALLAVLKKFMFHGLPGLNIEMPTVLYPTPLPQYDGRTPIK	soluble
SLADYYQVQLNMMPPVNLTVLDHCVENYSWNQMMEQAKLYADMFGFHKYWSVDEDDISTGFTALRSIVMSSSNGQIKMPINEPVKSIMKGQIEEFNDFNGGPGIQHIAFRTNNIIETVMALMQRGVEFNHTSENYYNNLKQRLNNDGIKLYEDFDTLRSLNILIDYDPSEG	not soluble
SLAHIVTLNTPYREDWLTQLADVVTDPDELLRLLNIDADEKLLAGRSAKKLFALRVPRSFIDRMEKGNPDDPLLRQVLTSQDEFVVASGFSTDPLEEQHSVVPGLLHKYHNRALLLVKGGCAVNCRYCFRRHFPYAENQGNKRNWQTALEYVAAHPELDEMIFSGGDPLMAKEHELDWLLTQLEAIPHIKRLRIHSRLPIVIPARITEALVERFARSTLQILLVNHINHANEVDETFRQAMAKLRRVGVTLLNQSVLLRGVNDNAQTLANLSNALFDAGVMPYYLHVLDKVQGAAHFMVSDDEARQIMRELLTLVSGYLVPKLAREIGGEPSKTPLDLQLRQQ	not soluble
SLASPKRWTTNGLSTNQTLCYTLGEGQPSPFFYLRSARKMPQSVEQHIAAITDRIKDFVRFLDREEVAPVLAELREMFARELRATEGFASHERELHDRIRHESDYEQLRAIHDELNVLEMERFLAISSVSALHANCTEYRDILADRALALAEDEMEHDGRGRAPCPYALCSMGSDGREEQTLITDQDYLIVYGDGGGEAADEWFREFSELIVERLAQIGFKKCTGDIMPSNPTWRGSLSQWRRKLLAIVRYEYEDYAKNLMDLIVISDARHVAGDRDLAATLIATIRALEKDYFQVLWGMAKAATEMKLALGFLKRLWTEGSGEHKGEFNLKLLAWAPLVMNVRILAINQGVPATNTVKRIEHLAREGSFSPSFANGLVEAYEVLTRHRILLQIKVIKGIQKSSYYLNPYTLPAEEREAIRQALLRIEDLQRTIHTNFSIM	not soluble
SLDLFISRHLEQLNSLSFKATPLFEHKAQFYAAPSYLEKYGTPQNVEELTKHNILIWGEKPAREIKTNRGKRMSLSGNFATTNPEALFHGAKRGMGILMTNNVMIKDDLKSGALVPILPDVTADEATVYAYYPKLDYQHTRTQLFLDYLKSRLEEEKRI	not soluble
SLDPSKVTSMSAVEFTPLPTCLQHRSCDACMSSDLTFNCSWCHVLQRCSSGFDRYRQEWMDYGCAQEAEGRMCEDFQD	soluble
SLDSNESKLKQKSPAEFFAENKNIAGFDNPGKSLYTTVRELVENALDSAESIEG	soluble
SLEIERINEHTVKFYMSYGDIEDRGFDREEIWYNRERSEELFWEVMDEVHEEEEFAVEGPLWIQVQALDKGLEIIVTKAQLSKDGQKLELPIPEDKKQEPASEDLDALLDDFQKEEQAVNQEEKEQKLQFVLRFGDFEDVISLSKLNVNGSKTTLYSFENRYYLYVDFCNMTDEEVENQLSILLEYATESSISIHRLEEYGKLIISEHALETIKKHFAS	soluble
SLEQENMEQRVKHESEELLQKFKSTSNLDELIESLGGLGEEAQREAGESLEALKRPVKEMMNDENNHLPQKLHQLKEVVSQLEPDHLKQGAVKKFVNKILGRSPMEQYAQRYKTVEAQVENIIEALLTGKDKLQEDTLMLTQLKGVARERISHLEEQIEMGKQLNAMLESEMTSEEWKNNPTALKKGQQKVISRIKNMSQAIMVLQQSLASVDLIVENNEKLEEAIFNAITMTKNIITVTASIQLALGNQKKVINAVQNVNEATENMLLSNAEMLKKNTEDTLKTLEEPAIAIESFRKAYQDVFAAIELTEQSNERIVSSGKKFIAELDTLNKEMKTKLIESKSTSSS	soluble
SLERSQVFNILRMMPKGAALHLHDIGIVTMDWLVRNVTYRPHCHICFTPRGIMQFRFAHPTPRPSEKCSKWILLEDYRKRVQNVTEFDDSLLRNFTLVTQHPEVIYTNQNVVWSKFETIFFTISGLIHYAPVFRDYVFRSMQEFYEDNVLYMEIRARLLPVYELSGEHHDEEWSVKTYQEVAQKFVETHPEFIGIKIIYSDHRSKDVAVIAESIRMAMGLRIKFPTVVAGFDLVGHEDTGHSLHDYKEALMIPAKDGVKLPYFFHAGETDWQGTSIDRNILDALMLNTTRIGHGFALSKHPAVRTYSWKKDIPIEVCPISNQVLKLVSDLRNHPVATLMATGHPMVISSDDPAMFGAKGLSYDFYEVFMGIGGMKADLRTLKQLAMNSIKYSTLLESEKNTFMEIWKKRWDKFIADVATK	soluble
SLESYTVNRGKGVTRYDICQLPSNSPIEDDRAEEIVQVPILQDNNIKTSTDWMFFGVFDGHGGWTTSSKLRDQLIGYVINELGTIYKPVQGEENLRYVPNSATIDQAMKNGFLKLDHELVNKNIEKLLTDGNKAKAAELLMPALSGSCALLSFYDTNSQMLKVAVTGDSRAILGSFKDNHWTVRQLSIDQTGANPSEVARIISEHPNEPKVIRNGRVLGSLEPTRAFGDCRYKLPAVIQERIYKQFFGRPLPNQLKSPPYVTAEPIITTTKINPNEHDFLVMASDGLYEMLTNEEIVGLVVKWMEKADMIKPRKSWFGFGSADSKLPEVKDVTNDKALKKPLNNKLGNSFLLEDNNVSTHLIRNALSNGGSREQTSMLISIPNPVSRRYRDDLTVTVVFFGKDTKGEDENGTLEVNWNATAG	soluble
SLETQQEGMDISSSLRKLGAQSKLIQTYIDQSLMSPNVQLEEVTALNTNQFLIKQDMKEWSSELYPQLILLNSKSKGFVTKFNSYYPTLKSFVDNKEDREGFSDRLEVLQEMAMTNQENTQRQINELTDLKLQLDKKLKDFDTNVATAQGILSTDGTGKIDQLKNEILNTKKAIQNDLQQIALIPGALNEQGFAIFKEVYSLSKEIIEPAAQAGVAAYNKGKEINNSILEAEKKAVQEATEQGKTALEIESAKKAAREAIEKSKQGEIAAAAAAKTQEYDLMKVIDTEKIKKTFGVFAEVNKLTAEQRAYLDDLEKQNQKIYDLTTKLSIADLQKSMLLLTQNDLHTFANQIDVELDLLKRYKEDLNLIKNSITKLSTNVDTTSEQSQKDTLRQLKNVISYLEEQVYKF	soluble
SLFAKATRNFLREVDADGDLIAVSNLNDSDKLQLLSLVTKKKRFWCWQRPKYQFLSLTLGDVLIEDQFPSPVVVESDFVKYEGKFANHVSGTLETALGKVKLNLGGSSRVESQSSFGTLRKQEVDLQQLIRDSAERTINLRNPVLQQVLEGRNEVLCVLTQKITTMQKCVISEHMQVEEKCGGIVGIQTKTVQVSATEDGNVTKDSNVVLEIPAATTIAYGVIELYVKLDGQFEFCLLRGKQGGFENKKRIDSVYLDPLVFREFAFIDMPDAAHGISSQDGPLSVLKQATLLLERNFHPFAELPEPQQTALSDIFQAVLFDDELLMVLEPVCDDLVSGLSPTVAVLGELKPRQQQDLVAFLQLVGCSLQGGCPGPEDAGSKQLFMTAYFLVSALAEMPDSAAALLGTCCKLQIIPTLCHLLRALSDDGVSDLEDPTLTPLKDTERFGIVQRLFASADISLERLKSSVKAVILKDSKVFPLLLCITLNGLCALGREHSEG	not soluble
SLFKTKWFAREARSHAITDEELCRAILETEQGKADALGGGVFKKRLHQNRERAIILAKGVSNWFYTFLYAKQDMSNINSQELAGFREIAKHYAFLTKAQLTAMINTKELTEICYDCKN	not soluble
SLGKEVATRATNDERCKILEQRLEQGMVFTEYERILKKRLVDGECSTARLPENAERNRFQDVLPYDDARVELVPTKENNTGYINASHIKVSVSGIEWDYIATQGPLQNTCQDFWQMVWEQGIAIIAMVTAEEEGGREKSFRYWPRLGSRHNTVTYGRFKITTRFRTDSGCYATTGLKMKHLLTGQERTVWHLQYTDWPEHGCPEDLKGFLSYLEEIQSVRRHTNSTSDPQSPNPPLLVHSSAGVGRTGVVILSEIMIACLEHNEVLDIPRVLDMLRQQRMMLVQTLCQYTFVYRVLIQFLKSSRLI	soluble
SLGKILSKTAIAIVLASGLLSACTSTTDVFHNGYVMDDQSLQLIPEGSSREQVLLTMGTPSTTATFGNEVFYYISQKRVRRAAFLKPSLVEQNILAIYFNKDGVIERKANYTLQDGKVFDSISRTTPTGGKDLTFLQQLLSGGTSGANIAKS	soluble
SLGNSYAGQLKTTRFEEVLHNSIEASLRSNNLVPRPIFSQLYLEAEQQLAALEGGSRVDNEEEEEEGEGGLETNGPPNPFQLHPLPEGCCTTDGFCQAGKDLRLVSISNEPMDVPAGFLLVGVKSPSLPDHLLVCAVDKRFLPDDNGHNALLGFSGNCVGCGKKGFCYFTEFSNHINLKLTTQPKKQKHLKYYLVRNAQGTLTKGPLICWKGSEFRSRQIPASTCSSSLFPALESTAAFPSEPVPGTNPSILMGAQQAGPASDHPSLNAAMGPAVFNGKDSPKCQQLAKNNLLALPRPSALGILSNSGPPKKRHKGWSPESEG	soluble
SLGSVLVDLQIATENIEGLPTEEQIVQWATGAVQPEGNEVEMTVRIVDEAESHELNLTYRGKDRPTNVLSFPFECPDEVELPLLGDLVICRQVVEREASEQEKPLMAHWAHMVVHGSLHLLGYDHIEDDEAEEMESLETQIMQGLGFDDPYLAEK	soluble
SLHSMTAFAADEHLTPWGLLACELRSVNHRFLDIVIRLPEELRALESQLRERVAARVSRGKLDLTVRLSPQEIHTGKLVVNELLLSHLSTLALRLSAQFPALRVTFAELLQIPGVLKGEQIDMTTLQGHAVALLDKVLDNFIATREREGLKMQAMIAQRASAIERIVGEVRTLIPTIREGQHNKLNARMNHLSYPVDHGRIEQELVLWLQ	not soluble
SLIDMGDYTLKELETWNEKIEGIVNEMGLNYYNQEFEIISYNGMLEAEAYTGMPSRYPHWSYGKAYEKQKTLYGYDLVGLPYEMVINSNPCIAYLMKENTLLLQILTMAHVYGHNDFFKNNRLFREGTDASETVNMFKNDADTIRNYIDNPAIGNEKVEKILDAAHAIRYQTHRVIGEKRLSYEEIRNKIIQDYNSSYKPRSIIEPYEKPVEPDLSKIPLEPEDDIIYFIENYGNLQEWERNVIEIVRRETAYFIPQIETKIMNEGWASFWHYTILNELKLPDGLHLEFLKRHNDVLSPILGSLNPYYLGFKILKDIEDRYGRDKIFEVREIERDESFIRKYLTRELCEELNLFEFSKRRGEYIIDNVADEEGWKNIRNSICSGCGMNSIPVIRVVELSKKDNNLILEHLYDGRELNMQYAEETLKYVVNLWKGKVTLKTTIEGKEYRIVCDENKKICEVK	soluble
SLKIDTHAHIFLKKLNTVANARYKPDYDASFKDYKANLDHYDFNKGVLVQPSFLGIDNEFLLQSIEKDENIKAIVVVDENIKFDELKKLKERKACGVRLNLIGKELPNFKSMVWTQFFENLSKLKMQIEIQRDLDNNLVDIVENLIPYGCNIVIDHLARANANLTNLEDLICLKNSRIFFKISGFYRAKIDYANNEQAVKFAKKIYEILKEHFPLSNFVFGSDWPHTNFEANINFSSALVAFNEVVVSKKEQEQILGDNACALFGF	soluble
SLLLAKHPVISVNGNTAVLVPEETRKLAELVNAKVEINVFHHSPERVEKIKRYLEKHGIEVLAAGDAVLEGLESARRIVDSRGILIADVVLVPLEDGDRCEILKRHGKKVIAIDLNPLSRTARMADITIVDNIIRAFPKMVEMAEEMRKWERERLKEVVENYDNSKVLAEAVEGIIQYLQKVKGELLSP	soluble
